# Experimental data from publication PMC5134462, “Electrochemical Aptasensor for Myoglobin-Specific Recognition Based on Porphyrin Functionalized Graphene-Conjugated Gold Nanocomposites”.
# T1: myoglobin (human, UniProt P02144 2-154)
# T1 sequence: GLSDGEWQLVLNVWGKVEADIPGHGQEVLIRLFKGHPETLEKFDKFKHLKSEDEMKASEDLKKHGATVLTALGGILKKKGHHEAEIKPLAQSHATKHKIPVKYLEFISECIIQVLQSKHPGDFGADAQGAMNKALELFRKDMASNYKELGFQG
# Biological target: T1, myoglobin
# Test: electrochemical aptasensor (DPV); aptamer immobilized on TCPP-Gr/AuNPs/GCE; 45 min incubation; 1.47e-10 M myoglobin; LOD 6.7e-12 M, linear 2.0e-11 to 7.7e-7 M (not Kd); Aptamer dissolved in T-buffer: 20 mM Tris-HCl, 0.10 M NaCl, 5.0 mM MgCl2, 10 mM TCEP, pH 7.4; binding buffer and temperature not given in the material
# Conditions: protein: native; label: ferrocene (3')
binder,measurement,value
"CCCTCCTTTCCTTCGACGTAGATCTGCTGCGTTGTTCCGA (ssDNA, 5' SH-(CH2)6; 3' ferrocene (Fc)) [MbBA (myoglobin-binding aptamer)]",binding result,binds
